In this assay the target is Arabidopsis thaliana aquaporin AtTIP2;1 (Arabidopsis thaliana) (UniProt Q41951). As to the kind of experiment: crystal structure; AtTIP2;1 solubilised by n-octyl-β-D-glucoside, hanging drop vapor diffusion at room temperature, 50 mM magnesium/sodium acetate pH 5.0, 28% (v/v) PEG 400; space group I 4, 1.18 Å, partial twinning.

Usually stoichiometry N stands for the number of molecules, sites or subunits per partner or assembly. On to “Arabidopsis thaliana aquaporin AtTIP2;1 (from UniProt Q41951 2-250) (natural protein)”, for which the stoichiometry N is 4.
